Results reported in patent publication US6083917.
“And” between values parts separate entries of the source, which are not always exact repeats. Equal entries are not always repeated.

target: rat brain protein farnesyltransferase (rat)

Substance	Concentration for 50% Inhibition (farnesylation of p21^H-ras) [µM]
CLLL (peptide)	22
CVIL (peptide)	11
CVLM (peptide)	0.15
CSIM (peptide)	0.2
CIIC (peptide)	0.35
CVLS (peptide)	3
CIIS (peptide)	0.35

The next lines start with the values.

Concentration for 50% Inhibition (farnesylation of p21^H-ras) [µM]	Substance
> 100	CIKS (peptide)
30	CTVA (peptide)
0.15	CVIM (peptide)
0.35	CCVQ (peptide)
0.15	CIIM (peptide)
100	CAIL (peptide)
5	CVIA (peptide)
0.15	CAIM (peptide)
0.15	CVVM (peptide)
17	CLIL (peptide)
1	CVIS (peptide)

target: rat brain protein farnesyltransferase (rat); remark: another data set of the same source

affinity for the enzyme relative to CVIM (from 50% inhibition) [fold]	half-maximal inhibition of farnesylation of p21^H-ras [nM]	Substance
6	25	CVFM (peptide)

target: rat brain protein farnesyltransferase (rat); remark: another data set of the same source

Substance	Concentration for 50% Inhibition of Farnesylation of p21^H-ras [µM]	affinity for the enzyme (from 50% inhibition) [fold]
CKIM (peptide)	0.7	–
CPIM (peptide)	8	–
CEIM (peptide)	1.5	–

More lines, now with the values ahead:

Concentration for 50% Inhibition of Farnesylation of p21^H-ras [µM]	affinity for the enzyme (from 50% inhibition) [fold]	Substance
20	–	CVPM (peptide)
4	–	CGIM (peptide)
8	–	CVIM with glycine at the A2 position (peptide)
–	> 50	CVIM with lysine at the A2 position (peptide)
–	> 50	CVIM with glutamic acid at the A2 position (peptide)

target: rat brain protein farnesyltransferase (rat); remark: another data set of the same source

Concentration for 50% Inhibition of Farnesylation of p21^H-ras [µM]	Substance
12	CVIL (peptide)

target: rat brain protein farnesyltransferase (rat); remark: another data set of the same source

Substance	affinity for the enzyme as estimated by the concentration required for 50% inhibition [fold]
CVAM (peptide)	> 30
CVIM with lysine at the X position (peptide)	> 30

Next, values leading:

affinity for the enzyme as estimated by the concentration required for 50% inhibition [fold]	Substance
> 30	CVIM with lysine at the A2 position (peptide)
> 30	CVIA (peptide)

target: rat brain protein farnesyltransferase (rat); remark: another data set of the same source

Substance	Concentration for 50% Inhibition of Farnesylation of p21^H-ras
N-AcECVFM (peptide)	2.4 µM
N-AcCVIM (peptide)	0.15 µM
N-AcCVWM (peptide)	3.7 µM
CVFM (peptide)	0.06 µM and 0.032 µM and 0.09 µM
N-AcCVFM (peptide)	0.25 µM
N-AcDCVFM (peptide)	1.9 µM
CCVFM (peptide)	0.44 µM
N-Octanoyl-CVFM (peptide)	0.35 µM
N-AcMCVFM (peptide)	1.4 µM
N-AcHCVFM (peptide)	0.24 µM

Further lines, results first:

Concentration for 50% Inhibition of Farnesylation of p21^H-ras	Substance
0.2 µM	N-AcPCVFM (peptide)
1.1 µM	KCVFM (peptide)
0.11 µM	N-AcCCVFM (peptide)
0.15 µM	CVIM (peptide)
0.21 µM	N-CholylCVFM (peptide)
0.32 µM	CVWM (peptide)
0.23 µM	N-AcSCVFM (peptide)
0.43 µM	N-AcGCVFM (peptide)
0.3 µM	N-AcKCVFM (peptide)

target: rat brain protein farnesyltransferase (rat); remark: another data set of the same source

Concentration for 50% Inhibition of Farnesylation of p21^H-ras [µM]	Substance
0.5	CVIF (peptide)
> 40	CVIM with glutamic acid at the X position (peptide)
> 40	CVIM with glycine at the X position (peptide)
> 40	CVIM with lysine at the X position (peptide)

target: rat brain protein farnesyltransferase (rat); remark: another data set of the same source

concentration giving 50% inhibition of farnesylation of p21^H-ras (FIG. 23A) [µM]	Substance
0.07	CVFM (peptide)
0.27	N-AcCVFM (peptide)
